The numbers were not newly measured in publication PMC7830601, which cites them from elsewhere.

The target of data set [1] is AIM2 HIN (Homo sapiens) (UniProt O14862). The experiment in a line: ITC.
For data set [2], the target named is ASC PYD (Homo sapiens) (UniProt Q9ULZ3).
Data set [3] shares this target. This is another data set of the same source.
Data set [4] deals with ASC CARD (Homo sapiens) (UniProt Q9ULZ3). Nature of the data set: NMR.

Where two headings read alike, the source gives them in different places.

A word on the Kd: it is the concentration at which binding is half-saturated. Take AIM2 PYD (from UniProt O14862): the dissociation constant Kd in data set [1] is 23.5 µM. As for ASC2 (from UniProt Q8WXC3), the results for the Kd in data set [2] and in data set [3] were 4.08 µM and 3.81 µM, respectively. ASC CARD (from UniProt Q9ULZ3): the Kd in data set [4] is 50 µM.
